Columns and labels:
[1] = molecular target: T1, human CD4, cell-expressed (human, UniProt P01730 26-458); assay: flow cytometry on MOLM-13 cells (CD4, no IL12R or IL23R), lower left panel
T1 construct: whole, on cells

[2] = molecular target: T2, human IL12Rβ1 extracellular domain Fc-fusion (human, UniProt P42701 24-545); assay: competition ELISA, coated IL-12 + IL12Rβ1-Fc
T2 construct: extracellular domain; bought; also called IL12Rβ1-Fc; hIL-12Rβ1-Fc; not shown: Fc part, captured by anti-hIgG

[3] = molecular target: T2, human IL12Rβ1 extracellular domain …; assay: competition ELISA, coated IL-12 + 2 nM IL12Rβ1-Fc
[4] = molecular target: T2, human IL12Rβ1 extracellular domain …; assay: competition ELISA, coated IL-23 + IL12Rβ1-Fc
[5] = molecular target: T3, human IL12Rβ1, cell-expressed (human, UniProt P42701 24-662); assay: cell-based or functional assay
[6] = molecular target: T2, human IL12Rβ1 extracellular domain …; assay: competition ELISA, coated IL-23 + 2 nM IL12Rβ1-Fc
[7] = molecular target: T2, human IL12Rβ1 extracellular domain …; assay: SPR Biacore T100, captured IL12Rβ1-Fc
[8] = molecular target: T3, human IL12Rβ1, cell-expressed; assay: cell-based or functional assay; remark: listed apart in the source
[9] = molecular target: T1, human CD4, cell-expressed; assay: flow cytometry on MOLM-13 cells (CD4, no IL12R or IL23R), upper left panel
[10] = molecular target: T4, human IL12Rβ2 extracellular domain Fc-fusion (human, UniProt Q99665 24-622); assay: competition ELISA, coated IL-12 + 3 nM IL12Rβ2-Fc
T4 construct: extracellular domain; bought; also called IL12Rβ2-Fc; hIL-12Rβ2-Fc
T4 sequence (looked up): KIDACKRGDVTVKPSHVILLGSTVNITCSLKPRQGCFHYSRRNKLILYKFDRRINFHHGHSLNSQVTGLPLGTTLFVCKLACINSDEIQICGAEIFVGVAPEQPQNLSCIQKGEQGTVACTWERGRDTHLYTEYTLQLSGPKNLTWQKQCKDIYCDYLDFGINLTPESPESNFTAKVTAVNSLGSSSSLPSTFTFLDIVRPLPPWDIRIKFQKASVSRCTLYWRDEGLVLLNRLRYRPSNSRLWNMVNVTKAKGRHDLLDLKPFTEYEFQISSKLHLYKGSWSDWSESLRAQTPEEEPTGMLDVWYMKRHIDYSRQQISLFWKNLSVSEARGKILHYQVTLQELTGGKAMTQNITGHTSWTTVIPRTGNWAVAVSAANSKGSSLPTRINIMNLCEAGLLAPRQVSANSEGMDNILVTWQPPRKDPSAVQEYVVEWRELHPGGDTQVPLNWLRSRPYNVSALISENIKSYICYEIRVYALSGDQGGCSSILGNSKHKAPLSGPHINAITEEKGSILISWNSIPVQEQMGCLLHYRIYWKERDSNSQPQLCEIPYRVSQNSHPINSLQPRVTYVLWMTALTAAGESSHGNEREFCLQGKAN

[11] = molecular target: T4, human IL12Rβ2 extracellular domain …; assay: competition ELISA, coated IL-12 + IL12Rβ2-Fc
[12] = molecular target: T5, human IL12Rβ2, cell-expressed (human, UniProt Q99665 24-862); assay: FACS, activated human T cells
T5 construct: whole, on cells; in the context of the heterodimeric receptor; also called IL12Rb2
T5 sequence (looked up): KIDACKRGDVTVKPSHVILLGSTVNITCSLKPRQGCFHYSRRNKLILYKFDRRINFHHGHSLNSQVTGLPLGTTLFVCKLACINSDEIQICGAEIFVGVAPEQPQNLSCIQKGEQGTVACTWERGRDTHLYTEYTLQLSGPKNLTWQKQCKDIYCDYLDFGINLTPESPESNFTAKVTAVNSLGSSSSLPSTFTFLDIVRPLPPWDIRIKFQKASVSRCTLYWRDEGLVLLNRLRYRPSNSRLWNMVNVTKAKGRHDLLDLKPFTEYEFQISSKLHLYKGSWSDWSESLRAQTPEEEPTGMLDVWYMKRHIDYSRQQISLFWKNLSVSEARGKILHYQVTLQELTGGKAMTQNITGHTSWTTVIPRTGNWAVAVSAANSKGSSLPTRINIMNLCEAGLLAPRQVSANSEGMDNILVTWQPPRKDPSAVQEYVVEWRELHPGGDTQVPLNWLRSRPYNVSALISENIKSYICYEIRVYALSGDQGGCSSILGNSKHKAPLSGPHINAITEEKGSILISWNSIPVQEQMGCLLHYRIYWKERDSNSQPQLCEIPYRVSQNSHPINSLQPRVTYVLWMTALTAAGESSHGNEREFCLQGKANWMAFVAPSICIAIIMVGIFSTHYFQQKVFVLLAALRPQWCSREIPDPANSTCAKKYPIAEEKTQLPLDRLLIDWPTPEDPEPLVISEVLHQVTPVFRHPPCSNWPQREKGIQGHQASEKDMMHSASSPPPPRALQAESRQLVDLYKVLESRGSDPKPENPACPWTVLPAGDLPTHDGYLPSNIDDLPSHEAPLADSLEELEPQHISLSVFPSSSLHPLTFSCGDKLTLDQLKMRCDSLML

[13] = molecular target: T4, human IL12Rβ2 extracellular domain …; assay: SPR Biacore T100, captured IL12Rβ2-Fc
[14] = molecular target: T5, human IL12Rβ2, cell-expressed; assay: cell-based or functional assay
[15] = molecular target: T3, human IL12Rβ1, cell-expressed; assay: flow cytometry on isolated CD8+ T cells of donor D863, anti-Flag detection
[16] = molecular target: T6, CXCR4 and IL-3Rα (CD123) co-expressed on MOLM-13 / THP-1 cells (human, UniProt P61073 1-352; P26951 19-378); assay: flow cytometry on MOLM-13 cells (IL-3Ra higher than CXCR4)
T6 construct: whole, on cells; two separate membrane proteins on one cell, not a complex; target of bispecifics on double-positive cells; also called CXCR4+/CD123+ cells

[17] = molecular target: T7, recombinant IL-3Rα ectodomain (human, UniProt P26951 19-305); assay: ELISA on recombinant IL-3Ra ectodomain (panel 'IL-3Ra ELISA', lower left)
T7 construct: extracellular domain; also called recombinant IL-3Ra; biotinylated-IL-3Rα ectodomain
T7 sequence (looked up): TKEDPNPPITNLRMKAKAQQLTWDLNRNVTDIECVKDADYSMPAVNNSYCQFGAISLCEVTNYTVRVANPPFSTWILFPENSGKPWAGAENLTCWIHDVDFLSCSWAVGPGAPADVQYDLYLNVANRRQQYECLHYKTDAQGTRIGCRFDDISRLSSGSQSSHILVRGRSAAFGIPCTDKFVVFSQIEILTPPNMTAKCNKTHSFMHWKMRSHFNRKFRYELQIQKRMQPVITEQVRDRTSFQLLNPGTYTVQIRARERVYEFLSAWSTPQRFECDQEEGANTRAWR

[18] = molecular target: T8, human CXCR4 (on cells, viral lipoparticles or membrane extracts) (human, UniProt P61073 1-352); assay: ELISA, CXCR4 viral lipoparticles
T8 construct: whole, on cells; also called hCXCR4 VLPs; CXCR4-lip

[19] = molecular target: T7, recombinant IL-3Rα ectodomain; assay: ELISA on recombinant IL-3Ra ectodomain (both lower panels)
[20] = molecular target: T8, human CXCR4 (on cells, viral …); assay: FACS, Caki-CXCR4 cells
[21] = molecular target: T8, human CXCR4 (on cells, viral …); assay: cell-based or functional assay
[22] = molecular target: T8, human CXCR4 (on cells, viral …); assay: FACS, Jurkat cells
[23] = molecular target: T8, human CXCR4 (on cells, viral …); assay: FACS displacement of 30 nM biotin-SDF-1, Caki-CXCR4 cells
[24] = molecular target: T8, human CXCR4 (on cells, viral …); assay: cell-based or functional assay; remark: listed apart in the source

T8 sequence (P61073 whole entry): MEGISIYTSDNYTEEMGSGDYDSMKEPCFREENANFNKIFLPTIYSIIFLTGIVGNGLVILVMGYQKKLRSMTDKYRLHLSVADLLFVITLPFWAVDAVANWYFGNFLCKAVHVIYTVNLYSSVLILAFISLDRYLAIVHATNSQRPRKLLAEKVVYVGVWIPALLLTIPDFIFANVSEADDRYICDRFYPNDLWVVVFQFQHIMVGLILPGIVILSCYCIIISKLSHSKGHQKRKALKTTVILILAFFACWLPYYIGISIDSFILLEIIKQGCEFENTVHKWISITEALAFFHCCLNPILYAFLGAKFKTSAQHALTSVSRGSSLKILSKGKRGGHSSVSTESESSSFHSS
T6 sequence (P61073 whole entry, one chain of several): as the sequence (P61073 whole entry) above

B1: IL12Rb1#31: 148F09 (VHH)
VHH: EVQLVESGGGLVQTGGSLRLSCAASGRTPSIIAMGWFRQTPGKEREFVGEIILSKGFTYYADSVKGRFTISRANAKNTITMYLQMNSLKSEDTAVYYCAARQNWSGNPTRTNEYEYWGQGTLVTVSS
notes: also called IL12Rβ1#31; LG148F09
**Q.** Which results are given for B1?
**A.** binding result [1]: no binding (tested: 1E-6 M); IC50 [2]: 22 nM; IC50 [3]: 22 nM; IC50 [4]: 10 nM; IC50, IFNγ release, PBMC D840 [5]: 93.5 nM; IC50 [6]: 10 nM; Kd [7]: 23 nM; koff [7]: 0.017 s⁻¹; kon [7]: 720000 M⁻¹ s⁻¹; IC50, IL-17 release, PBMC D840 [8]: 210 nM

B2: IL12Rb2#1: 135B08 (VHH)
VHH: EVQLVESGGRLVQAGDSLRLSCAASGRTFISYRMGWFRQAPGKEREFVAALRWSSSNIDYTYYADSVKGRFSISGDYAKNTVYLQMNSLKAEDTAVYYCAASTRWGVMESDTEYTSWGQGTLVTVSS
notes: also called IL12Rβ2#1; LG135B08
**Q.** Does B2 bind [9]?
**A.** Result: no binding (tested: 1E-6 M)

**Q.** And the IC50 [10]?
**A.** Its IC50 is 4.2 nM.

**Q.** What about the IC50 [11] of the same binder?
**A.** The IC50 was 4.2 nM.

**Q.** What about the EC50 [12] of the same binder?
**A.** Its EC50 is 1.5 nM.

**Q.** What about the Kd [13] of the same binder?
**A.** The Kd was 2.7 nM.

**Q.** What about the koff [13] of the same binder?
**A.** The koff was 0.00057 s⁻¹.

**Q.** And the kon [13]?
**A.** The kon was 210000 M⁻¹ s⁻¹.

**Q.** And the “IC50, IFNγ release, PBMC D840” value [14]?
**A.** Its value is 13.5 nM.

**Q.** And the “IC50, IFNγ release, T cells D839” value [14]?
**A.** Its value is 51 nM.

**Q.** Does B2 bind [15]?
**A.** Result: no binding (tested: 250 nM)

B3: IL12Rb2#2: 135A07 (VHH)
VHH: EVQLVESGGRLVQAGDSLRLSCAASGRTFTSYRMGWFRQAPGKEREFVSALRWSSGNIDYTYYADSVKGRFSISGDYAKNTVYLQMNSLKAEDTAVYYCAASTRWGVMESDTEYTSWGQGTLVTVSS
notes: also called IL12Rβ2#2; LG135A07
**Q.** Does B3 bind [9]?
**A.** Result: no binding (tested: 1E-6 M)

**Q.** What about the IC50 [10] of the same binder?
**A.** The IC50 was 15 nM.

**Q.** What about the IC50 [11] of the same binder?
**A.** The IC50 was 15 nM.

**Q.** And the EC50 [12]?
**A.** Its EC50 is 1.8 nM.

**Q.** And the Kd [13]?
**A.** The Kd was 6.9 nM.

**Q.** And the koff [13]?
**A.** Its koff is 0.0018 s⁻¹.

**Q.** And the kon [13]?
**A.** The kon was 270000 M⁻¹ s⁻¹.

**Q.** What about the “IC50, IFNγ release, PBMC D840” value [14] of the same binder?
**A.** Its value is 40 nM.

**Q.** And the “IC50, IFNγ release, T cells D839” value [14]?
**A.** Its value is 67 nM.

B4: 55A01-35GS-281F12 (bispecific antibody)
chain: EVQLVESGGGSVQAGGSLRLSCTTSGRALNMYVMGWFRQAPGNEREFVAATSSSGGSTSYPDSVKGRFTISRDNAKNTVYLQMNSLKPEDTAAYRCAASPYVSTPTMNILEEYRYWGQGTLVTVSSGGGGSGGGGSGGGGSGGGGSGGGGSGGGGSGGGGSEVQLVESGGGLVQAGDSLRLSCAASGRAFSRYAMGWFRQAPGKEREFVAAIGWGPSKTNYADSVKGRFTISRDNAKNTVYLQMNTLKPEDTAVYSCAAKFVNTDSTWSRSEMYTYWGQGTLVTVSS
notes: also called CD123#2-CXCR4#2; 55A01-281F12
**Q.** B4 was tested. Which “EC50 (read off the curve)” value [16] did it give?
**A.** The value was about 10 nM.

**Q.** What about the “EC50 (read off the curve)” value [17] of the same binder?
**A.** Its value is about 1 nM.

B5: 14D09 (VHH)
VHH: EVQLVESGGGLVQAGGSLRLSCVASGISSSKRNMGWYRQAPGKQRESVATISSGGNKDYTDAVKDRFTISRDTTKNTVYLQMNSLKPEDTAVYYCKIEAGTGWATRRGYTYWGQGTLVTVSS
notes: also called CXCR4#1; 14D9
**Q.** Which results are given for B5?
**A.** EC50 [18]: 7.28 nM; binding result [19]: no binding (tested: 1E-6 M); EC50 [20]: 9.9 nM; IC50, CXCL-12 chemotaxis, Jurkat E6-1 [21]: 10.4 nM; IC50, CXCL-12 chemotaxis, MOLM-13 [21]: 8.62 nM; EC50 [22]: 11 nM; IC50 [23]: 18.4 nM; IC50, SDF-1 chemotaxis, Jurkat [24]: 11 nM

B6: 14A02 (VHH)
VHH: EVQLVESGGGLVQAGGSLRLSCVASGISSSIRNMGWYRQAPGKQRESVATISSGGNKDYTDAVKDRFTISRDTTKNTVYLQMSSLKPEDTAVYYCKIEAGTGWATRRGYTYWGQGTQVTVSS
**Q.** How did the EC50 [18] turn out when B6 was run?
**A.** Its EC50 is 0.73 nM.

**Q.** What about the EC50 [20] of the same binder?
**A.** Its EC50 is 4 nM.

**Q.** And the EC50 [22]?
**A.** The EC50 was 1.15 nM.

**Q.** What about the IC50 [23] of the same binder?
**A.** The IC50 was 4.1 nM.

**Q.** And the “IC50, SDF-1 chemotaxis, Jurkat” value [24]?
**A.** The value was 0.95 nM.

B7: 14E02 (VHH)
VHH: EVQLVESGGGLVQAGGSLRLSCVASGISSSIRNMGWYRQAPGKQRESVATISSGGNKDYTDAVKDRFTISRDTTKNTVYLQMNSLKPEDTAVYYCKIEAGTGWATRRGYTYWGQGTQVTVSS
notes: also called 14E2
**Q.** With B7 as the binder, how does the EC50 [18] read?
**A.** Its EC50 is 0.78 nM.

**Q.** And the EC50 [20]?
**A.** The EC50 was 2.6 nM.

**Q.** What about the IC50 [23] of the same binder?
**A.** Its IC50 is 13.5 nM.
